Assay results reported in FireProtDB (doi:10.1002/pro.5560030904).
Where “and” joins values, the source holds several entries; their conditions need not be identical. Equal entries are not always repeated.

B1: Fructose-bisphosphate aldolase A, P00883 (parent)
chain: MPHSHPALTPEQKKELSDIAHRIVAPGKGILAADESTGSIAKRLQSIGTENTEENRRFYRQLLLTADDRVNPCIGGVILFHETLYQKADDGRPFPQVIKSKGGVVGIKVDKGVVPLAGTNGETTTQGLDGLSERCAQYKKDGADFAKWRCVLKIGEHTPSALAIMENANVLARYASICQQNGIVPIVEPEILPDGDHDLKRCQYVTEKVLAAVYKALSDHHIYLEGTLLKPNMVTPGHACTQKYSHEEIAMATVTALRRTVPPAVTGVTFLSGGQSEEEASINLNAINKCPLLKPWALTFSYGRALQASALKAWGGKKENLKAAQEEYVKRALANSLACQGKYTPSGQAGAAASESLFISNHAY

Variants of: B1
Conditions: Oryctolagus cuniculus; pH 7.4; Thermal; DSC; sodium phosphate 10 mM; transition: 3; reversible: yes; structure 1ADO; whole UniProt chain shown

Row | Variant | Tm | change of melting temperature, mutant - wild type (higher = more stable) | unfolding enthalpy (calorimetric)
1 | MPHSHPALTPEQKKELSDIAHRIVAPGKGILAADESTGSIAKRLQSIGTENTEENRRFYRQLLLTADDRVNPCIGGVILFHETLYQKADDGRPFPQVIKSKGGVVGIKVDKGVVPLAGTNGETTTQGLAGLSERCAQYKKDGADFAKWRCVLKIGEHTPSALAIMENANVLARYASICQQNGIVPIVEPEILPDGDHDLKRCQYVTEKVLAAVYKALSDHHIYLEGTLLKPNMVTPGHACTQKYSHEEIAMATVTALRRTVPPAVTGVTFLSGGQSEEEASINLNAINKCPLLKPWALTFSYGRALQASALKAWGGKKENLKAAQEEYVKRALANSLACQGKYTPSGQAGAAASESLFISNHAY [D129A] | 46.8 °C | -11.9 °C | 71 kcal/mol
2 | MPHSHPALTPEQKKELSDIAHRIVAPGKGILAADESTGSIAKRLQSIGTENTEENRRFYRQLLLTADDRVNPCIGGVILFHETLYQKADDGRPFPQVIKSKGGVVGIKVDKGVVPLAGTNGETTTQGLGGLSERCAQYKKDGADFAKWRCVLKIGEHTPSALAIMENANVLARYASICQQNGIVPIVEPEILPDGDHDLKRCQYVTEKVLAAVYKALSDHHIYLEGTLLKPNMVTPGHACTQKYSHEEIAMATVTALRRTVPPAVTGVTFLSGGQSEEEASINLNAINKCPLLKPWALTFSYGRALQASALKAWGGKKENLKAAQEEYVKRALANSLACQGKYTPSGQAGAAASESLFISNHAY [D129G] | 44 °C and 46 °C | -11.7 °C and -12.7 °C | 67 kcal/mol and 73 kcal/mol
3 | MPHSHPALTPEQKKELSDIAHRIVAPGKGILAADESTGSIAKRLQSIGTENTEENRRFYRQLLLTADDRVNPCIGGVILFHETLYQKADDGRPFPQVIKSKGGVVGIKVDKGVVPLAGTNGETTTQGLNGLSERCAQYKKDGADFAKWRCVLKIGEHTPSALAIMENANVLARYASICQQNGIVPIVEPEILPDGDHDLKRCQYVTEKVLAAVYKALSDHHIYLEGTLLKPNMVTPGHACTQKYSHEEIAMATVTALRRTVPPAVTGVTFLSGGQSEEEASINLNAINKCPLLKPWALTFSYGRALQASALKAWGGKKENLKAAQEEYVKRALANSLACQGKYTPSGQAGAAASESLFISNHAY [D129N] | 45.6 °C and 47 °C | -10.1 °C and -11.7 °C | 80 kcal/mol and 83 kcal/mol
4 | MPHSHPALTPEQKKELSDIAHRIVAPGKGILAADESTGSIAKRLQSIGTENTEENRRFYRQLLLTADDRVNPCIGGVILFHETLYQKADDGRPFPQVIKSKGGVVGIKVDKGVVPLAGTNGETTTQGLVGLSERCAQYKKDGADFAKWRCVLKIGEHTPSALAIMENANVLARYASICQQNGIVPIVEPEILPDGDHDLKRCQYVTEKVLAAVYKALSDHHIYLEGTLLKPNMVTPGHACTQKYSHEEIAMATVTALRRTVPPAVTGVTFLSGGQSEEEASINLNAINKCPLLKPWALTFSYGRALQASALKAWGGKKENLKAAQEEYVKRALANSLACQGKYTPSGQAGAAASESLFISNHAY [D129V] | 43.9 °C and 46.5 °C | -11.8 °C and -12.2 °C | 91 kcal/mol and 78 kcal/mol
5 | MPHSHPALTPEQKKELSDIAHRIVAPGKGILAADESTGSIAKRLQSIGTENTEENRRFYRQLLLTADDRVNPCIGGVILFHETLYQKADDGRPFPQVIKSKGGVVGIKVDKGVVPLAGTNGETTTQGLQGLSERCAQYKKDGADFAKWRCVLKIGEHTPSALAIMENANVLARYASICQQNGIVPIVEPEILPDGDHDLKRCQYVTEKVLAAVYKALSDHHIYLEGTLLKPNMVTPGHACTQKYSHEEIAMATVTALRRTVPPAVTGVTFLSGGQSEEEASINLNAINKCPLLKPWALTFSYGRALQASALKAWGGKKENLKAAQEEYVKRALANSLACQGKYTPSGQAGAAASESLFISNHAY [D129Q] | 45.9 °C and 47.1 °C | -9.8 °C and -11.6 °C | 67 kcal/mol and 77 kcal/mol
